# From PMC6969021
# Assays:
# [1] = target: firefly luciferase (FLuc), wild type (Photinus pyralis) [luciferase: P08659]
# [2] = target: FLucNC-Atto532 (Photinus pyralis); test: AUC; sedimentation velocity, detection at 532 nm; GuHCl-denatured FLuc-Atto532 diluted to 200 nM in folding buffer with 3 µM DnaK, 1 µM DnaJ, 5 mM ATP
# Chain of DnaJ (P08622 whole entry): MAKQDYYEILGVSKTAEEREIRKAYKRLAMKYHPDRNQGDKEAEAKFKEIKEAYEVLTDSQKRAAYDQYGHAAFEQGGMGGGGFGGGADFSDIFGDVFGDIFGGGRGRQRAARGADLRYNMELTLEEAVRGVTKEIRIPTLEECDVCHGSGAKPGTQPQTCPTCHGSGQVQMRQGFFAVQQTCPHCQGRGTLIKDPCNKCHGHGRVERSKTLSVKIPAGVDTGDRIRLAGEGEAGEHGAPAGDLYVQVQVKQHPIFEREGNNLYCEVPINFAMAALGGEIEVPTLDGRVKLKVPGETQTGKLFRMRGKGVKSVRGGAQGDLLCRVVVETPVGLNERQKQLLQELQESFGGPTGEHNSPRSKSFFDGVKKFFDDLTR
# Chain of DnaK (P0A6Y8 whole entry): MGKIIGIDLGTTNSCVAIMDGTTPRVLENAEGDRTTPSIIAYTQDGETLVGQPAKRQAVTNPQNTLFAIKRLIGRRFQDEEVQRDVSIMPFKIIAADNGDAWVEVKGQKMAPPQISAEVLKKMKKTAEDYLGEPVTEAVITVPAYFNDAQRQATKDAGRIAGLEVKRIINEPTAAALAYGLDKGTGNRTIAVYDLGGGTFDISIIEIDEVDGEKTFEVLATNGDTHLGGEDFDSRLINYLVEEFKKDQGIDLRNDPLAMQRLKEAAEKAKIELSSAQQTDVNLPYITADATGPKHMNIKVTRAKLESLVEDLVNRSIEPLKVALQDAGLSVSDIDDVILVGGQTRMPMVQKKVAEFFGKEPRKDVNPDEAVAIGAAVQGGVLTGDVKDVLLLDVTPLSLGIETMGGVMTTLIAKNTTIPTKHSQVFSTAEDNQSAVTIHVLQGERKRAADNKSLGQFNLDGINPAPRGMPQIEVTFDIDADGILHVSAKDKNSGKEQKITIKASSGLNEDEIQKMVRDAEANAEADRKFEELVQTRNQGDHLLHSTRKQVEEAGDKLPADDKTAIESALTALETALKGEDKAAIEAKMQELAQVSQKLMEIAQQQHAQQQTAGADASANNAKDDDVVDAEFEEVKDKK
yield of luminescence refolding of FLuc in the presence of KJE without ATP [1],stoichiometry N (DnaK per FLuc) [2],Substance
40%,–,DnaJ (from UniProt P08622 1-376) (natural protein)
–,12,DnaK (from UniProt P0A6Y8 1-638) (natural protein)
